Assay results published in patent US20240240209A1, “SYNTHESIS OF ENANTIOPURE CIS-A-IRONE FROM A RENEWABLE CARBON SOURCE” (Agency for Science, Technology and Research, priority 2021, published 2024).

Key:
[1] = Purified pMT7/pMT10 reaction with auxiliary enzymes mtn and mtaD; type: biochemical; settings: 20 μM SAH introduced in the purified enzymatic reaction
Text: All the purified enzyme reactions were done in triplicates.
An alternative strategy to reduce SAH inhibition is to introduce auxiliary enzymes that degrade SAH12 (FIG. 18a). […] Noteworthy, with mtaD enzyme, cis-α-irone production by pMT10 was improved by ˜2.5 fold as compared to pMT10 reaction alone (FIG. 3c). […] This somewhat agrees with the effect of mutating D135, which abolishes the hydrogen bond interaction between pMT7 and the amine group of the adenine moiety.

[2] = Cell lysate reaction of pMT enzymes with psi-ionone, irones quantified by HS-SPME-GCMS; type: biochemical; settings: for in-vitro production of cis-α-irone (in words): single mutations vs parent (pMT7 or pMT12); for fold change in cis-α-irone produced: AUC vs non-mutated (=1)
Outline: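 pMT1 site-saturation mutants were expressed in E. coli BL21(DE3) and lysed, and lysates were incubated 2 days at 28 °C with 0.2 mM SAM and 10 mg/L psi-ionone (plus caryophyllene) in 50 mM Tris pH 7, 10 mM MgCl2. Cis-α-irone was measured by HS-SPME-GCMS peak area and given as fold change over non-mutated enzyme.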

[3] = In-vivo cis-α-irone production screening of pMT7 and pMT12 mutants; type: cell-based, Escherichia coli; settings: for Fold change in in-vivo cis-α-irone production: mutations made to pMT12, normalized to pMT12 (=1)
Outline: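 E. coli BL21(DE3) ΔaroA ΔaroB ΔaroC ΔserC strains, with or without ΔmetJ, carried the plasmids and were grown in 1 ml auto-inducing defined medium (glucose/glycerol, 30 mM lactose) at 28 °C for 3 days. Products were extracted into hexane and measured by GC-MS. Production is a semi-quantitative fold change relative to pMT12.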

[4] = In vivo cis-α-irone production from glucose/glycerol in strain 2O31 cultures; type: cell-based, Escherichia coli; settings: pMT plasmid transformed into strain 2O31; 2 days
Text: The advantage of in vivo biotransformation is that microbial cells can regenerate expensive co-factors rendering the scale-up bioprocess more cost-effective. […] Thus, pMT was incorporated into our psi-ionone producing microbe^7,8, to synthesize cis-α-irone from cheap renewable carbon sources (glucose/glycerol) (FIG. 4 and FIG. 19). To achieve high productivity, the psi-ionone production was first optimized by multidimensional heuristic process (MHP)^15, and strain 2O31 was identified to be the highest producer for psi-ionone (FIG. 19b). 2O31 was used as the base strain to probe cis-α-irone production in vivo (Table 5). Moreover, to improve the plasmid stability, auxotrophic strain was used with chemically defined media^1. The plasmid carrying pMT1, pMT7 or pMT10 was transformed into the strain 2O31, and produced less than 0.01, about 2 and about 3 mg/L cis-α-irone respectively in 2 days (FIG. 19d). To further optimize irone production with pMT10, three different culture conditions were tested: no methionine or dodecane added (control); 10 mM methionine added; 10 mM methionine and 20% dodecane added. In the control reaction, approximately 4.8 mg/L or 0.85 mg/L/OD cis-α-irone was produced after 3-day incubation (2O31-pMT10, FIGS. 4c and 4e). […] Lastly, when both methionine and dodecane were added, psi-ionone was accumulated in the organic layer and only ˜0.3 mg/L or ˜0.05 mg/L/OD cis-α-irone was produced (2O31-pMT10, FIGS. 4c, d and e). […] The limited methylation efficiency might be due to insufficient cofactor or SAH inhibition. […] In fact, the total amount of psi-ionone and cis-α-irone decreased (FIG. 4c, and d). As SAM biosynthesis is regulated by metJ in E. coli^16,17, the aforementioned six reactions were subsequently examined under metJ deleted genetic background (2O31, ΔmetJ). An increase in cis-α-irone titer to ˜5.7 mg/L was produced by 2O31 ΔmetJ-pMT10 strain with 10 mM methionine supplementation (FIG. 4c). An increase in specific cis-α-irone titer to ˜1.2 mg/L/OD was produced by 2O31 ΔmetJ-pMT10r strain without methionine supplementation (FIG. 4d). […]

B1: mtn: 5′-methylthioadenosine/S-adenosylhomocysteine nucleosidase, auxiliary enzyme hydrolysing SAH (protein, UniProt P0AF12 1-232, looked up)
5'-methylthioadenosine/S-adeno …: MKIGIIGAMEEEVTLLRDKIENRQTISLGGCEIYTGQLNGTEVALLKSGIGKVAAALGATLLLEHCKPDVIINTGSAGGLAPTLKVGDIVVSDEARYHDADVTAFGYEYGQLPGCPAGFKADDKLIAAAEACIAELNLNAVRGLIVSGDAFINGSVGLAKIRHNFPQAIAVEMEATAIAHVCHNFNVPFVVVRAISDVADQQSHLSFDEFLAVAAKQSSLMVESLVQKLAHG
Question: With B1 as the molecule, how does the “effect of supplementary auxiliary enzyme on pMT7 and pMT10 activity” value [1] read?
Answer: restored pMT7 and pMT10 activity

B2: mtaD: 5-methylthioadenosine/S-adenosylhomocysteine deaminase, auxiliary enzyme deaminating SAH (protein, UniProt Q9X034 1-406, looked up)
5-methylthioadenosine/S-adenos …: MIIGNCLILKDFSSEPFWGAVEIENGTIKRVLQGEVKVDLDLSGKLVMPALFNTHTHAPMTLLRGVAEDLSFEEWLFSKVLPIEDRLTEKMAYYGTILAQMEMARHGIAGFVDMYFHEEWIAKAVRDFGMRALLTRGLVDSNGDDGGRLEENLKLYNEWNGFEGRIFVGFGPHSPYLCSEEYLKRVFDTAKSLNAPVTIHLYETSKEEYDLEDILNIGLKEVKTIAAHCVHLPERYFGVLKDIPFFVSHNPASNLKLGNGIAPVQRMIEHGMKVTLGTDGAASNNSLNLFFEMRLASLLQKAQNPRNLDVNTCLKMVTYDGAQAMGFKSGKIEEGWNADLVVIDLDLPEMFPVQNIKNHLVHAFSGEVFATMVAGKWIYFDGEYPTIDSEEVKRELARIEKELYSS
Question: For B2, which “effect of supplementary auxiliary enzyme on pMT7 and pMT10 activity” value [1] is on record?
Answer: restored pMT7 and pMT10 activity

B3: F212L: pMT12 with F212L (protein)
chain: MPQEARTPQQQVTADEVGDWYDKFGEVYHLTLGESVHCGLWFPPDAPVPQDMELVTMSSQAQDRFTDYLIETLDPKAGQHLLDIGCGTGRPALKAARQRGIAVTGVAVSKEQIAAANRLAAGHGLTERLTFEVADAMRLPYEDESFDCAWAIESLDHMDRAKALGEAWRVLKPGGDLLVAEEVVTEELTEPETALFETLFALNVPPRLGEFLDIVSGAGFHTLSLKDLSADLAMTMNVFALGVYSRRAEFTERFGAEFVDGLLAGLGSAQETVIRKTRFFMATLRKPAV
modifications: Modified from pMT1
Question: Which “in-vitro production of cis-α-irone (in words)” value [2] does the source give for B3 here?
Answer: moderate increase

Question: What about the “Fold change in in-vivo cis-α-irone production” value [3] of the same molecule?
Answer: 1.11

B4: pMT1: wild-type bifunctional methyltransferase and cyclase TleD from Streptomyces blastmyceticus (protein, listed as Streptomyces blastmyceticus)
chain: MPQEARTPQQQVTADEVGDWYDKFGEVYHLTLGESVHCGLWFPPDAPVPQDMELVTMSSQAQDRYTDYLIETLDPKAGQHLLDIGCGTGRTALKAARQRGIAVTGVAVSKEQIAAANRLAAGHGLTERLTFEVADAMRLPYEDESFDCAWAIESLCHMDRAKALGEAWRVLKPGGDLLVLESVVTEELTEPETALFETLYAANVPPRLGEFFDIVSGAGFHTLSLKDLSANLAMTMNVFALGVYSRRAEFTERFGAEFVDGLLAGLGSAQETLIRKTRFFMATLRKPAV
Question: For B4, which “cis-α-irone content (percentage of cis-α-irone in the irone mixture)” value ([2]; cell extracts with psi-ionone) is on record?
Answer: 21%

Question: And the “trans-α-irones detected (share of irones)” value ([2]; cell extracts with psi-ionone)?
Answer: 79%

Question: And the “fold change in cis-α-irone produced” value ([2]; pMT1_E153 mutants)?
Answer: 1.0

Question: What about the “fold change in cis-α-irone produced” value ([2]; pMT1_M236 mutants) of the same molecule?
Answer: 1.0

Question: And the “fold change in cis-α-irone produced” value ([2]; pMT1_R160 mutants)?
Answer: 1.0

Question: And the “fold change in cis-α-irone produced” value ([2]; pMT1_S182 mutants)?
Answer: 1.0

Question: What about the “fold change in cis-α-irone produced” value ([2]; pMT1_Y200 mutants) of the same molecule?
Answer: 1.0

Question: And the cis-α-irone produced [4]?
Answer: less than 0.01 mg/L

B5: S268H: pMT12 with S268H (protein)
chain: MPQEARTPQQQVTADEVGDWYDKFGEVYHLTLGESVHCGLWFPPDAPVPQDMELVTMSSQAQDRFTDYLIETLDPKAGQHLLDIGCGTGRPALKAARQRGIAVTGVAVSKEQIAAANRLAAGHGLTERLTFEVADAMRLPYEDESFDCAWAIESLDHMDRAKALGEAWRVLKPGGDLLVAEEVVTEELTEPETALFETLFALNVPPRLGEFFDIVSGAGFHTLSLKDLSADLAMTMNVFALGVYSRRAEFTERFGAEFVDGLLAGLGHAQETVIRKTRFFMATLRKPAV
modifications: Modified from pMT1
Question: Which results are given for B5?
Answer: in-vitro production of cis-α-irone (in words) [2]: moderate increase; Fold change in in-vivo cis-α-irone production [3]: 1.26

B6: Q60V: pMT7 with Q60V (protein)
chain: MPQEARTPQQQVTADEVGDWYDKFGEVYHLTLGESVHCGLWFPPDAPVPQDMELVTMSSKAQDRFTDYLIETLDPKAGQHLLDIGCGTGRTALKAARQRGIAVTGVAVSKEQIAAANRLAAGHGLTERLTFEVADAMRLPYEDESFDCAWAIESLCHMDRAKALGEAWRVLKPGGDLLVAEEVVTEELTEPETALFETLFALNVPPRLGEFFDIVSGAGFHTLSLKDLSANLAMTMNVFALGVYSRRAEFTERFGAEFVDGLLAGLGSAQETVIRKTRFFMATLRKPAV
modifications: Modified from pMT1
Question: For B6, which “in-vitro production of cis-α-irone (in words)” value [2] is on record?
Answer: increased the cis-α-irone production in-vitro

Question: And the “in-vivo production of cis-α-irone (in words)” value ([3]; single mutations vs parent (pMT7 or pMT12))?
Answer: increased cis-α-irone production in-vivo
